The results in this text go back to patent EP1834963A1, “Di-polymer protein conjugates and processes for their preparation” (priority 2006, dated 2007).

Data set [1] deals with male rats. Description: in vivo single dose biocomparability study of di-PEG G-CSF product with Neupogen and Neulasta (WBC and neutrophil counts). Conditions: single subcutaneous injection 0.1 mg/kg. Here is the method:
The di-PEG G-CSF product comprising a mixture of di- and di' PEG G-CSF conjugate isoforms according to the invention was tested in vivo, to show the improved activity versus unmodified G-CSF (Neupogen®) and to compare its biological activity with commercially available mono-pegylated G-CSF (Neulasta®).
The in vivo study was an open randomized, parallel- grouped single dose biocomparability study of Neupogen® and Neulasta® with the di-PEG G-CSF product. It was carried out by subcutaneously injecting 0.1 mg/kg to male rats. Six animals per group per time point were subjected to bleeding. Serum samples were subjected to a complete blood count on the same day that the samples were collected. The average white blood cell counts and neutrophil counts were calculated.

Data set [2] is described as follows: in vivo clearance (pharmacokinetic) studies in sham-operated and nephrectomised rats. Conditions: intravenous 0.005 mg/kg; for clearance mechanism: sham-operated and nephrectomised rats, inferred from similar kinetics. Here is the method: The clearance mechanism of (i) the Di-PEG G-CSF product mixture (43 kDa total MW) comprising di-PEG 12kDa G-CSF and […] isoforms according to example A6 and of (ii) the single isoform, Di'-PEG 20kDa G-CSF conjugate (59 kDa total MW) according to example B, was tested in vivo in comparison to commercially available mono-pegylated G-CSF (Neulasta®)
The in vivo studies were open randomized, parallel- grouped clearance studies of Neulasta® with either the Di-PEG G-CSF product mixture or the single di'-PEG 20kDa G-CSF conjugate isoform in sham-operated (control group) and nephrectomised rats. The studies were carried out by intravenous injection of 0.005 mg/kg of the conjugate to male rats. Four animals per group per time point were subjected to bleeding. The remaining G-CSF plasma concentration was determined in the serum samples and relevant pharmacokinetic data such as the plasma elimination half-life were calculated.

Data set [3] relates to male rats. Kind of data set: in vivo single dose biocomparability study of Di'-PEG 20kDa G-CSF isoform with Neupogen and Neulasta (WBC and neutrophil counts). Conditions: single subcutaneous injection 0.1 mg/kg; for average white blood cell counts (WBC) and WBC response: Figure 14; for average neutrophil counts and neutrophil response: Figure 15. Here is the method:
For testing the biological activity of the Di'-PEG 20kDa G-CSF conjugate isoform in vivo, the single isoform was highly purified by preparative cation exchange chromatography. The defined product contained at least 95% di'-PEG G-CSF conjugate isoform as described in example A 6, paragraph d)ii). The in vivo study was an open randomized, parallel- grouped single dose biocomparability study of Neupogen® and Neulasta® with the single di'-PEG G-CSF conjugate isoform. It was carried out by subcutaneously injecting 0.1 mg/kg to male rats. Six animals per group per time point were subjected to bleeding. Serum samples were subjected to a complete blood count on the same day that the samples were collected. The average white blood cell counts and neutrophil counts were calculated.

[4] abbreviates: NE - nephrectomised rats, PK study Neulasta vs Di-PEG 12kDa G-CSF mixture.
[5] abbreviates: SH - sham operated rats, PK study Neulasta vs Di-PEG 12kDa G-CSF mixture.
The mark [6] stands for this setting: NE - nephrectomised rats, PK study Neulasta vs Di'-PEG 20kDa G-CSF isoform.
[7] abbreviates: SH - sham operated rats, PK study Neulasta vs Di'-PEG 20kDa G-CSF isoform.
[8] abbreviates: compared to unmodified G-CSF (Neupogen®).

B1: Di-PEG 12kDa G-CSF mixture (conjugate, UniProt P09919 31-207, looked up)
Granulocyte …: TPLGPASSLPQSFLLKCLEQVRKIQGDGAALQEKLVSECATYKLCHPEELVLLGHSLGIPWAPLSSCPSQALQLAGCLSQLHSGLFLYQGLLQALEGISPELGPTLDTLQLDVADFATTIWQQMEELGMAPALQPTQGAMPAFASAFQRRAGGVLVASHLQSFLEVSYRVLRHLAQP
modifications: two 12 kDa PEG chains
Turning to B1, the “average white blood cell counts (WBC)” value in the data set with male rats [1] (compared to Neulasta®, Figure 8) is “at least biosimilar, perhaps potentially better, because of slightly higher maximum WBC and neutrophil counts”. Moreover, the average neutrophil counts result in the data set on male rats [1] (compared to Neulasta®, Figure 9) was “at least biosimilar, perhaps potentially better, because of slightly higher maximum WBC and neutrophil counts”. The “average white blood cell counts (WBC) and WBC response” value in the data set on male rats [1] (compared to unmodified G-CSF (Neupogen®), Figure 8) is “higher WBC and neutrophil counts and longer sustained WBC and neutrophil response”. Moreover, in the data set on male rats [1] (compared to unmodified G-CSF (Neupogen®), Figure 9), the “average neutrophil counts and neutrophil response” value is “higher WBC and neutrophil counts and longer sustained WBC and neutrophil response”. Also, the Elimination half-life in data set [2] (setting [4]) turned out to be 3.4 h; in data set [2] (setting [5]), 2.9 h. The clearance mechanism entry in data set [2] is listed as “predominantly cleared by Neutrophil Receptor-mediated clearance”.

B2: Neulasta (conjugate, UniProt P09919 31-207, looked up)
Granulocyte …: B1 Granulocyte …
modifications: pegfilgrastim; N-terminal Met, 20 kDa PEG
Turning to B2, the Elimination half-life was 2.1 h in data set [2] (setting [6]), 2.5 h in data set [2] (setting [4]), 1.9 h in data set [2] (setting [7]) and 1.9 h in data set [2] (setting [5]). Moreover, in data set [2], the clearance mechanism entry is “predominantly cleared by Neutrophil Receptor-mediated clearance”.

B3: Di'-PEG 20kDa G-CSF isoform (conjugate, UniProt P09919 31-207, looked up)
Granulocyte …: B1 Granulocyte …
modifications: two 20 kDa PEG chains
Turning to B3, the “average white blood cell counts (WBC) and WBC response” value is “bioimproved because of higher maximum WBC and neutrophil counts and its sustained WBC and neutrophil response” in the data set with male rats [3] (compared to Neulasta®); “i) higher WBC and neutrophil counts and ii) showed a sustained WBC and neutrophil response” in the data set with male rats [3] (setting [8]). The “average neutrophil counts and neutrophil response” value with male rats [3] (compared to Neulasta®) is “bioimproved because of higher maximum WBC and neutrophil counts and its sustained WBC and neutrophil response”; in the data set on male rats [3] (setting [8]) it was “i) higher WBC and neutrophil counts and ii) showed a sustained WBC and neutrophil response”. Also, the Elimination half-life was determined as 3.7 h in data set [2] (setting [6]) and 3.3 h in data set [2] (setting [7]). In data set [2], the clearance mechanism result is “predominantly cleared by Neutrophil Receptor-mediated clearance”.
